Earlier results on two substances are cited in paper PMC8616177.

Like-named read-outs stand apart in the source and are kept apart here.

As a reminder, the Kd is a measure of binding affinity in units of concentration.

Data set [1] addresses EGFR (Homo sapiens) (UniProt P00533).
The target is the same in data set [2]. This is another data set of the same source.

On to EGF (from UniProt P01133), for which, in the data set with EGFR (Homo sapiens) [1], the Kd is 1.5 nM.
Consider GE11, for which, in the data set with EGFR (Homo sapiens) [2], the Kd was 22 nM.
